Source: patent US20180148493A1

Molecular target: HLA-A2 (Homo sapiens)

**Q.** AIIRILQQL (modifications not checked) […] was tested. Which IC50 did it give?
**A.** 385 nM
